In the supplement of paper PMC9170038:

Tested on: MS2 coat protein
Assay: apparent KD of MS2 coat protein; higher = weaker reporter binding
Settings: Eterna round: R107
Summary of the method: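 The buffer was 100 mM Tris-HCl pH 7.5 with 80 mM KCl and 4 mM MgCl2, used without or with constant ligand. In it, RNA switches transcribed on-chip from Illumina sequencing clusters were titrated with SNAP-549-labelled MS2 coat protein in twofold steps from 0.7 or 1.5 nM to 3 µM. Apparent KD for each design is the median of its normalised cluster binding-curve fits.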

[1] = input ligand: theophylline 20 uM
[2] = input ligand: theophylline 2 mM
[3] = input ligand: tryptophan 2.4 mM

Row | Sequence | apparent KD of MS2 coat protein (input ligand: arginine 13.2 mM) | apparent KD of MS2 coat protein (input ligand: none) | apparent KD of MS2 coat protein [1] | apparent KD of MS2 coat protein [2] | apparent KD of MS2 coat protein [3]
1 | GGUCGCCAACAUGGGUGGGCGACCCUGGAAGGAGCGAGCGAGAGCUCAGGUAGGUCGCCAGAACAUGAGGAUCACCCAUGUAAUA [(A)''-(M)'-(A)'(Arg1)-(Arg2)-(M1)-(M2)_Design13] | 70.8 nM | 44.5 nM | 162 nM | 70.3 nM | 59.6 nM
2 | GGUCGCCAACAUGGGUGGGUGACCCUGGAAGGAGCGAGCGAGAGCUCAGGUAGGUCGCCAGAACAUGAGGAUCACCCAUGUAAUA [(A)''-(M)'-(A)'(Arg1)-(Arg2)-(M1)-(M2)_Design14] | 38.3 nM | 63.5 nM | 90 nM | 139 nM | 65.8 nM
3 | GGUGGCGUGACGGAUACCAGCCACCGCCGCAAGGCAACAUGAGGAUCACCCAUGUUGGGUGGCCCUUGGCAGCUGUCGUGCGGCG [#1 Same State - Theophylline B Attempt #22 (HarryS)] | 13.3 nM | 195 nM | 151 nM | 159 nM | 50.2 nM
4 | GGUGGCUGGACUGAUACCAGCCACCACCGAUAGACCACAUGAGGAUCACCCAUGUUGGGUGGCCCUUGGCAGCAGUCCAGCUGCC [#1 Same State - Theophylline B Attempt #10 (HarryS)] | 152 nM | 607 nM | 374 nM | 2990 nM | 873 nM
5 | GGUUACUCUACGGCCGCCACUGAUAAAUAAUAAACCUGUACAUAAACAUGAGGAUCACCCAUGUACAGGACCGGGUAGUGUAACC [Tryptophan B 7] | 30.5 nM |  | 41.2 nM | 34.7 nM | 
6 | GGUUACUCUACGGCCGCCACUGAUUAUUUAUAGUCCUGUACAUAAACAUGAGGAUCACCCAUGUACAGGACCGGGUAGUGUAACC [Tryptophan B 12] | 28.5 nM |  | 53.9 nM | 40.6 nM | 
7 | GGUUACUCUACGGCCGCCACUGGGCAUGUAAAUAACAUGAGGAUCACCCAUGUGGAUUAAUAUUACAGGACCGGGUAGUGUAACC [Tryptophan B 23] | 126 nM | 279 nM | 253 nM | 384 nM | 25.1 nM
8 | GGUUACUCUACGGCCGCCACUGUAAAGUAAAUAUUAAUGUACAUGACAUGAGGAUCACCCAUGUACAGGACCGGGUAGUGUAACC [Tryptophan B 14] | 45.5 nM |  | 56.5 nM | 46.5 nM | 
9 | GUAGCGACGACGGCCGCCACUCACAGGUGAGGGUAGACCAACCUUCACAUGAGGAUCACCCAUGUGAGGACCGGGUUGUCGGUAC [#11 Exclusion Tryptophan B] | 50.9 nM | 134 nM | 95.5 nM | 111 nM | 146 nM
10 | GUAGCGACGGCGGCCGCCACUCACAGGUGAGGGUAGACCAACCUUCACAUGAGGAUCACCCAUGUGAGGACCGGGCUGUCGCUAC [#13 Exclusion Tryptophan B] | 36.3 nM |  | 117 nM | 122 nM | 
11 | GUAUACAUGAGGAUCACCCAUGUGCCAGAAGGAGCGCUGGAAACGGCAGGUAGGUCGCUGGUAGGUCCUCUAUCUAGACGUUCGG [#17 Exclusion - Arginine A] | 52.6 nM | 97.5 nM | 188 nM | 188 nM | 60.3 nM
12 | GUAUCGACAUGAGGAUCACCCAUGUCCGAAGGAGCGUUGGGAACAACAGGUAGGUCGCGGACAUAGAGCAUCCGGAAACGGAUGC [EAA NP+V+V2 #1] | 10.1 nM | 14 nM | 16.4 nM | 34.3 nM | 13.9 nM
13 | GUAUCUAUGUGAAAUAGAUAUGUAACUGAAGGAGCGUCAUUAAGGACAGGUAGGUCGCGGAGCACAUGAGGAUCACCCAUGUCGG [#09 Same State - Arginine A] | 24.7 nM | 42.1 nM | 31.1 nM | 35.5 nM | 34.3 nM
14 | GUAUUACGGACGGCCGCCACUGUGGGACAUGAGGAUCACCCAUGUGGCGCUACUUACAAGUGCGACAGGACCGGGUCAUGGUUUG [theeternabot_sameState_MS2_Trp_B_1] | 152 nM |  | 732 nM | 783 nM | 
15 | GUCCUAGCGAGCACUCGCUAGGACGCGGAUACCAGCGAGGUCCAUCGCCCUUGGCAGCCGAACAUGAGGAUCACCCAUGUCGGUA [#1 Same State - Theophylline A Attempt #17 (HarryS)] | 12.6 nM | 10 nM | 13.2 nM | 18 nM | 9.86 nM
16 | GUCCUCAGCCGAAGGAGCGCUAGAAGAUGACAUGAGGAUCACCCAUGUGUGUGAUGUGGCUAGCAGGUAGGUCGCGGAGAGGAUU [Exclusion - Arginine B (Freestyle 16)] | 19.8 nM | 22.9 nM | 37.1 nM | 28 nM | 20.6 nM
17 | GUUAUUAGAAAACUAAUAACAGUGGGUGAACGAGGACCGGUACGGCCGCCACUCGGACAUGAGGAUCACCCAUGUCCAUGUGAAA [AstrosExyTryA#4] | 12.1 nM |  | 15.8 nM | 16.5 nM | 
18 | GUUGGAUUCUCGGCCGCCACUGAGAGAGUCAUGUGAACAUGAGGAUCACCCAUGUAAUAUAUAUACAGGACCGGGAGGGUUGUAA [4.K] | 21.9 nM | 20.2 nM | 35.8 nM | 22.6 nM | 14.8 nM
19 | UAAAACAUGAGGAUCACCCAUGUAAUUGAUACCAGAGUGAUGAUCCUCCCUUGGCAGCAAAACGCUGAUUGAUUACAAUCAGCGA [Mat - Same State Theophlline A - Mod of Eli - D24] | 36.8 nM |  | 169 nM |  | 42.5 nM
20 | UAAACUACACAUGAGGAUCACCCAUGUGGCCGAGGACCGGUACGGCCGCCACUCGUGUGUUAAUAAAAGAACUGCAAGAUUCUUU [Issoraor] | 78.3 nM |  | 220 nM | 396 nM | 
